Assay [1] concerns the target 17G4, recombinant IgG2c antibody. Description: inhibition ELISA: antigen in solution varied, antibody 17G4 at 0.05 µg/ml, plate coated with G200-BSA peptide. As to the method: (§1) The pre-incubated samples were transferred (50 μl/well) to the blocked ELISA plates, and plates were incubated for 25 min at room temperature without shaking. Plates were washed as described above. Alkaline phosphatase conjugated anti-mouse IgG detection antibody (Mabtech, cat. no. 3310-4) was diluted 1:1000 and added to each plate (50 μl/well). The plate was sealed and incubated with shaking (900 rpm) for 45 min at room temperature and subsequently washed as described above. Alkaline phosphatase substrate (50 μl/well) was added to the plate and the optical density was read every 15 min at a wavelength of 405 nm for up to 120 min. The IC50 values were determined from a log inhibitor concentration response curve (FIG. 17).
A general note: An ELISA detects its analyte on a solid surface through an enzyme-linked reagent.

The target in assay [2] is T1, 7B10, recombinant IgG2c antibody.
T1 construct: also called 7610
In words: inhibition ELISA: antigen in solution varied, antibody 7B10 at 0.05 µg/ml, plate coated with G200-BSA peptide. Here is the method:
as §1

Assay [3] concerns the target 7C7, recombinant IgG2c antibody. Description: inhibition ELISA: antigen in solution varied, antibody 7C7 at 0.05 µg/ml, plate coated with G200-BSA peptide. As to the method: as §1
For assay [4], the target named is 23D5, recombinant IgG2c antibody. Description: inhibition ELISA: antigen in solution varied, antibody 23D5 at 0.05 µg/ml, plate coated with G200-BSA peptide. As to the method: as §1
In assay [5] the target is 28F2, recombinant IgG2c antibody. In words: inhibition ELISA: antigen in solution varied, antibody 28F2 at 0.05 µg/ml, plate coated with G200-BSA peptide. Here is the method: […] of each synthetic ApoE peptide, recombinant C-terminal ApoE fragment G200-HIS and full-length ApoE4 were prepared by 4-fold dilution starting from 1000 ng/ml in 96 well storage plates (30 μl final volume). Each recombinant antibody to be tested was added (30 μl) to the serial dilutions of each of the synthetic ApoE peptides, G200-HIS or full-length ApoE4 at a final concentration of 0.05 μg/ml per well. Samples were pre-incubated for 45 min at room temperature with shaking (900 rpm).
as §1

Assay [6] deals with T2, recombinant C-terminal ApoE fragment A199-HIS (ApoE-A199-H299-10xHIS) (human, UniProt P02649 217-317).
T2 construct: also called A199-HIS fragment
Description: SPR (Biacore 8K), A199-HIS amine-coupled on CM5, antibody as analyte, bivalent analyte fit (ka1). A general note: SPR reads the build-up and loss of mass on a sensor chip optically.

The target of assay [7] is T3, A199 N-terminal neo-epitope peptide AGQPLQE-Acp-C (SEQ ID NO:55) conjugated to BSA (human, not fully specified (residue 9); printed as AGQPLQE-Acp-C; also: C-terminal Cys conjugated to BSA carrier).
T3 construct: BSA carrier
T3 peptide: AGQPLQE[Ahx]C
In words: direct ELISA after limiting dilution.

The target of assay [8] is T4, L198 N-terminal neo-epitope peptide LAGQPL-Acp-C (SEQ ID NO:52) conjugated to BSA (human, not fully specified (residue 8); printed as LAGQPL-Acp-C; also: C-terminal Cys conjugated to BSA carrier).
T4 construct: BSA carrier; also called L198-BSA peptide
T4 peptide: LAGQPL[Ahx]C
In words: direct ELISA; proteins coated at 0.1 uM, BSA peptides at 1 ug/ml; antibody in 3-fold dilutions from 3000 ng/ml; blank reduced OD 450 nm. Here is the method: (§2) Selectivity evaluation of purified monoclonal antibodies by direct ELISA: The direct ELISA described below was used to evaluate the binding selectivity of the purified monoclonal antibodies produced in Example 17.
(§3) The screening was performed according to standard ELISA protocols. Briefly, 1 μg/ml solutions of BSA-conjugated neo-epitope peptides and negative control peptide, and 0.1 μM recombinant C-terminal ApoE fragment and full-length ApoE (Abcam, cat. no. ab50243) were prepared by dilution in PBS. 50 μl/well were added to an ELISA half-area 96 well microtiter plate, and the plate was sealed with adhesive sealer and incubated over night at 4° C. After discarding the solution, the plates were blocked with 150 μl/well of protein-free blocking solution (Pierce) for 1 h at room temperature with shake (600-900 rpm). The plates were washed four times with washing buffer containing 0.28 mM NaH₂PO₄, 2.5 mM Na₂HPO₄, 150 mM NaCl, 0.1% TWEEN®-20 and 0.0075% Kathon CG. Purified monoclonal antibodies of interest were 3-fold serially diluted with a starting dilution at 3 μg/ml (mixed 1:2 with dilution buffer (PBS with 0.1% BSA and 0.05% TWEEN®-20)). An anti-ApoE C-terminal antibody was used as a reference antibody (ApoE E-8 mouse monoclonal, Santa Cruz Biotechnology, cat. no. sc-393302). 50 μl/well were added into the ELISA plates and incubated for 2 h at room temperature with shake (600-900 rpm). The plates were washed four times as described previously. […] After another wash (as described previously), 50 μl/well of K-Blue® aqueous substrate (Neogen) were added, and the reaction was stopped after 5-15 min with 50 μl/well of 0.5 M H₂SO₄. The optical density at 450 nm was read using an ELISA reader (Tecan).

The target of assay [9] is T5, recombinant full-length ApoE4 (aa 1-299; SEQ ID NO:45; Abcam cat. no. ab50243) (human, UniProt P02649 19-317).
T5 construct: Bought protein; also called recombinant ApoE4 full-length protein
The description is as above. As to the method: as §2, §3

Assay [10] has as its target T6, A199 N-terminal neo-epitope peptide AGQPLQ-Acp-C (SEQ ID NO:51) conjugated to BSA (human, not fully specified (residue 8); printed as AGQPLQ-Acp-C; also: C-terminal Cys conjugated to BSA carrier).
T6 construct: BSA carrier; also called A199-BSA peptide
T6 peptide: AGQPLQ[Ahx]C
In words: direct ELISA, A199-BSA peptide coated at 1 µg/ml. Here is the method: as §2, §3

Assay [11] addresses T2, recombinant C-terminal ApoE fragment …. Description: SPR (Biacore 8K), A199-HIS amine-coupled on CM5, antibody as analyte, bivalent analyte fit (KD1).
The target is the same in assay [12]. Description: direct ELISA, A199-HIS coated at 0.1 µM. As to the method: as §2, §3
Assay [13] deals with T7, full-length ApoE in human brain extract from Alzheimer's disease patients (human, UniProt P02649 19-317).
T7 construct: mature; Endogenous protein on Western blot or in solution (IP); also called ApoE full-length protein
Description: Western blot of AD brain RIPA 2% SDS extract; anti-A199 antibody at 2 ug/ml as primary antibody. Here is the method: RIPA 2% SDS brain extract containing approximately 60 μg total protein was mixed with 2×Laemmli sample buffer, boiled for 5 min at 95° C. and loaded onto SDS-PAGE gels (Bolt™ 12% Bis-Tris Plus 10 well, Thermo Fisher, cat. no. NW00120BOX). Gels were run for 30-40 min at 180 V, after which proteins were transferred from the gels onto nitrocellulose membranes using the Trans-Blot® Turbo™ system (Bio-Rad). […] Membranes were washed and incubated for 1 h at room temperature with the detection antibody anti-mouse-800CW (LI-COR, cat. no. 925-32210) diluted 1:25000 in Intercept® PBS Blocking Buffer (LI-COR) with 0.1% TWEEN®-20. Membranes were washed and images acquired using Odyssey® FC (LI-COR).
In general terms: In western blotting, separated proteins are transferred to a membrane and probed.

Assay [14] addresses T2, recombinant C-terminal ApoE fragment …. Description: SPR (Biacore 8K), A199-HIS amine-coupled on CM5, antibody as analyte, bivalent analyte fit (kd1).

Non-standard residues stand in square brackets, D forms with d. No end group written: not given here. Ahx = NCCCCCC(=O)O

T7 sequence (P02649 19-317): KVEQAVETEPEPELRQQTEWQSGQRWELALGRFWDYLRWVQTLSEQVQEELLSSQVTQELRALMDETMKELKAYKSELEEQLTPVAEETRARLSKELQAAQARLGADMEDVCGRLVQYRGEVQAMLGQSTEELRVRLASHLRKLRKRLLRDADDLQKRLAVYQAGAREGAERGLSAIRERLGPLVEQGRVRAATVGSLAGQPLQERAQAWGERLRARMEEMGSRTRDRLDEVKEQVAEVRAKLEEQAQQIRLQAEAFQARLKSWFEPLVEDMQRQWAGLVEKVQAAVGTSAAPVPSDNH
T5 sequence (P02649 19-317 C130R limits assumed): as the sequence (P02649 19-317) above, with C112R counted along it
28F2, recombinant IgG2c antibody, sequence (VH, as listed by the source): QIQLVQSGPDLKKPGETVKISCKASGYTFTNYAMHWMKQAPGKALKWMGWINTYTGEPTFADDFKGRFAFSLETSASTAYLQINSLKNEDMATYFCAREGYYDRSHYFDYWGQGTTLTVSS
17G4, recombinant IgG2c antibody, sequence (VH, as listed by the source): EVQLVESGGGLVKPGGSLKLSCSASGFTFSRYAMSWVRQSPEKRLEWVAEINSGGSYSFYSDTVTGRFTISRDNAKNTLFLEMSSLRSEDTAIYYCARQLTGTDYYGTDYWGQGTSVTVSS
23D5, recombinant IgG2c antibody, sequence (VH, as listed by the source): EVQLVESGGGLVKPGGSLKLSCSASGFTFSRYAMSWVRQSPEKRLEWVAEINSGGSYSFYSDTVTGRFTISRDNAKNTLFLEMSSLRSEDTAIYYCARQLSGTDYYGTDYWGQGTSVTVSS
T1 sequence (VH, as listed by the source): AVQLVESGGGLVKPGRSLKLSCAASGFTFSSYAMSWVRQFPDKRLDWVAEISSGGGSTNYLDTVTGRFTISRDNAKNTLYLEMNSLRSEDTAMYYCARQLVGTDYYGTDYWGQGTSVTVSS
7C7, recombinant IgG2c antibody, sequence (VH, as listed by the source, chain 1 of 2): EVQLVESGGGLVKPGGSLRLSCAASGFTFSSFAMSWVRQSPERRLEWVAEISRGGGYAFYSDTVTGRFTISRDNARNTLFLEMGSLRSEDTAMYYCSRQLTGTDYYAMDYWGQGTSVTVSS
7C7, recombinant IgG2c antibody, sequence (VL, as listed by the source, chain 2 of 2): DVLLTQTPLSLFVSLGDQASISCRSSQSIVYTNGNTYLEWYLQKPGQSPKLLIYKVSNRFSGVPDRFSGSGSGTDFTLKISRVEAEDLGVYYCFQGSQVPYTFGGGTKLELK

B1: recombinant C-terminal ApoE fragment G200-HIS (ApoE-G200-H299-10xHIS) (other)
chain: GQPLQERAQAWGERLRARMEEMGSRTRDRLDEVKEQVAEVRAKLEEQAQQIRLQAEAFQARLKSWFEPLVEDMQRQWAGLVEKVQAAVGTSAAPVPSDNHHHHHHHHHHH
notes: also called G200-HIS fragment
B1: the IC50 in [1] was 3 nM; in assay [2], 2.8 nM; in [3], 2.8 nM; in assay [4], 2.4 nM; in [5], 2.4 nM.

B2: 63F6, monoclonal anti-A199 antibody (antibody, IgG2b, V domains shown)
VH: QVQLQQPGTELVKPGASVKLSCKASGYTFTNYWMHWVKQRPGQGLEWIGNINPRNGGTNYNEKFKSKATLTVDKSSSTDYMQLSSLTSEDSAVYYCARGLYDYDFDYWGQGTTLTVSS
VL: DVLMTQTPLSLPVSLGDQASISCRSSQSIVHGNGNTYLQWFLQKPGQSPKLLIYKVSSRFSGVPDRFSGSGSGTDFTLKISRVEAEDLGVYYCFQGSHVPFTFGSGTKLEIK
With B2, in assay [6], the kon worked out at 150000 M⁻¹ s⁻¹. Further, the binding result in assay [7] is “binds”; in assay [8], “no binding (tested: 3000 ng/ml)”; in assay [9] it was “no binding (tested: 3000 ng/ml)”; in assay [13] it was “no binding (tested: 2 ug/ml (text))”. Further, the EC50 in assay [10] was 3.8 ng/mL; in [12] it was 1.8 ng/mL. The Kd in assay [11] was 137 nM. Besides, in assay [14], the koff came out at 0.0207 s⁻¹.

B3: 67G3, monoclonal anti-A199 antibody (antibody, IgG2b, V domains shown)
VH: QVQLQQPGTELVKPGASVKLSCKASGYTFTRYWLHWVKQRPGQGLEWIGNINPTNGGANYNEKFKNKATLTVDKSSSTAYMQLSSLTSEDSAVYYCSRGAYDYDCDYWGQGTTLTVSS
VL: DVLMTQTPLSLPVSLGDQASISCRSSQRIVHSNGNIYLQWYLQKPGQSPKLLIYKVSNRFSGVPDRFSGSGSGTDFTLKISRVEAEDLGVYYCFQGSHVPYTFGGGTKLEIK
Take B3: the kon in [6] came out at 180000 M⁻¹ s⁻¹. The binding result in assay [7] is on record as “binds”; in assay [9] it was “no binding (tested: 3000 ng/ml)”; in assay [13] it was “no binding (tested: 2 ug/ml (text))”. Besides, the results for the EC50 in [10] and in [12] were 4.4 ng/mL and 3.5 ng/mL, respectively. The Kd in [11] stood at 83 nM. Also, in assay [14], the koff worked out at 0.0172 s⁻¹.

For orientation: IC50 means the concentration at which inhibition is half-maximal. For orientation: kon means the rate constant with which the complex forms. What is called EC50 is the midpoint of the concentration-response curve. One may read the koff as the first-order rate constant of dissociation.

Source of the values: patent US20220242939A1 (BIOARCTIC, published 2022).
